According to the Human Domainome abundance scans (Beltran et al. 2025):
± gives the uncertainty stated by the source.

B1: Ankyrin-2, residues 3571 to 3650; numbered along this chain, Q01484 (parent)
chain: ERLAYIADHLGFSWTELARELDFTEEQIHQIRIENPNSLQDQSHALLKYWLERDGKHATDTNLVECLTKINRMDIVHLME

Variants of: B1
Experiment: abundance fitness (aPCA) (normalised: wild type 0, dead -1); higher = more abundant; growth selection in yeast, the domain comes from the species named
Conditions: Homo sapiens

Variant	abundance fitness
H9C	0.006 ± 0.4
H9V	-0.043 ± 0.38
H9D	0.021 ± 0.088
H9G	-0.025 ± 0.2
E65P	0.015 ± 0.051
E65K	-0.086 ± 0.098
E65S	-0.056 ± 0.05
E65N	-0.231 ± 0.25
E65I	0.143 ± 0.15
E65T	0.031 ± 0.057
F23E	-1.17 ± 0.31
F23T	-0.211 ± 0.12
F23I	0.047 ± 0.18
D8K	-0.006 ± 0.17
D8V	-0.232 ± 0.11
D8E	-0.075 ± 0.46
D8S	0.051 ± 0.17
D8P	0.011 ± 0.12
D8W	-0.342 ± 0.39
Q27Y	-0.236 ± 0.13
Q27I	-0.039 ± 0.13

Variant	abundance fitness
Q27M	-0.006 ± 0.1
Q27K	0.051 ± 0.14
Q30D	-0.183 ± 0.15
Q30M	0.008 ± 0.27
Q30S	-0.081 ± 0.063
E34Q	0.085 ± 0.1
E34A	-0.048 ± 0.063
E34H	-0.048 ± 0.14
E34N	-0.048 ± 0.13
E34S	-0.018 ± 0.049
E34G	-0.058 ± 0.057
E34Y	-0.148 ± 0.13
E34C	-0.413 ± 0.27
I33C	-0.002 ± 0.11
I33V	-0.04 ± 0.071
I33K	0.058 ± 0.11
V76R	-0.223 ± 0.093
V76P	-0.226 ± 0.095
I70P	-1.06 ± 0.13
I70D	-0.533 ± 0.12
I70Q	-0.382 ± 0.18

Variant	abundance fitness
I70L	-0.065 ± 0.044
W50Q	0.003 ± 0.068
W50S	-0.081 ± 0.06
W50M	0.007 ± 0.094
W50L	0.012 ± 0.056
W50R	-0.205 ± 0.064
W50H	-0.132 ± 0.13
W50D	-0.598 ± 0.19
A58G	-0.03 ± 0.047
A58H	0.156 ± 0.18
A58P	0.027 ± 0.079
A58N	0.054 ± 0.15
A58M	-0.231 ± 0.13
A58L	0.041 ± 0.061
P36M	-0.017 ± 0.12
P36T	-0.052 ± 0.087
P36Q	-0.123 ± 0.091
P36G	-0.045 ± 0.047
P36H	-0.202 ± 0.2
M79K	-0.23 ± 0.27
H29F	0.062 ± 0.25

Variant	abundance fitness
H29G	0.027 ± 0.065
H29W	-0.137 ± 0.11
H29Y	-0.294 ± 0.2
H29R	-0.111 ± 0.06
H29D	-0.079 ± 0.18
R53A	-0.052 ± 0.063
R53T	-0.029 ± 0.072
R53H	-0.092 ± 0.15
R53Y	-0.166 ± 0.19
R53G	-0.117 ± 0.055
R53K	-0.029 ± 0.16
R53D	-0.413 ± 0.16
R53S	0.005 ± 0.056
R53C	-0.086 ± 0.098
F12S	0.063 ± 0.096
F12D	-0.312 ± 0.24
F12A	0.038 ± 0.079
F12Q	-0.132 ± 0.25
F12Y	-0.195 ± 0.25
F12I	0.019 ± 0.17
